Assay results published in patent publication US20090068679A1.

How the values were obtained:
[1] = molecular target: P/GF/sFlt-1 complex (gP/GF) (human) (UniProt P49763); assay: ELISA: PlGF 1 ug/ml on plate-captured Flt-1/Fc 1 ug/ml; mAb 1.0 ug/ml; anti-mouse IgG-POD
[2] = molecular target: P/GF/sFlt-1 complex (gP/GF) (human) (UniProt P49763); assay: sandwich ELISA: mAb coated 3 ug/ml; PlGF 6.25 + Flt-1/Fc 400 (ng/ml) pre-incubated; anti-VEGF R1-POD
[3] = molecular target: P/GF/sFlt-1 complex (gP/GF) (human) (UniProt P49763); assay: sandwich ELISA: mAb coated 3 ug/ml; PlGF 0.78 + Flt-1/Fc 400 (ng/ml) pre-incubated; anti-VEGF R1-POD
[4] = molecular target: recombinant human PlGF (R&D Systems, Catalog No. 264-PG/CF) (human) (UniProt P49763); assay: sandwich ELISA: mAb coated 3 ug/ml; PlGF 12.5 ng/ml; anti-PlGF-POD
[5] = molecular target: P/GF/sFlt-1 complex (gP/GF) (human) (UniProt P49763); assay: ELISA: PlGF 1 ug/ml on plate-captured Flt-1/Fc 1 ug/ml; mAb 0.1 ug/ml; anti-mouse IgG-POD
[6] = molecular target: P/GF/sFlt-1 complex (gP/GF) (human) (UniProt P49763); assay: sandwich ELISA: mAb coated 3 ug/ml; PlGF 3.13 + Flt-1/Fc 400 (ng/ml) pre-incubated; anti-VEGF R1-POD
[7] = molecular target: recombinant human PlGF (R&D Systems, Catalog No. 264-PG/CF) (human) (UniProt P49763); assay: sandwich ELISA: mAb coated 3 ug/ml; PlGF 3.13 ng/ml; anti-PlGF-POD
[8] = molecular target: recombinant human PlGF (R&D Systems, Catalog No. 264-PG/CF) (human) (UniProt P49763); assay: sandwich ELISA: mAb 0.1 ug/ml on anti-mouse IgG plate, PlGF 0.1 ug/ml, anti-PlGF-POD
[9] = molecular target: P/GF/sFlt-1 complex (gP/GF) (human) (UniProt P49763); assay: sandwich ELISA: mAb coated 3 ug/ml; PlGF 12.5 + Flt-1/Fc 400 (ng/ml) pre-incubated; anti-VEGF R1-POD
[10] = molecular target: recombinant human PlGF (R&D Systems, Catalog No. 264-PG/CF) (human) (UniProt P49763); assay: sandwich ELISA: mAb coated 3 ug/ml; PlGF 1.56 ng/ml; anti-PlGF-POD
[11] = molecular target: P/GF/sFlt-1 complex (gP/GF) (human) (UniProt P49763); assay: sandwich ELISA: mAb coated 3 ug/ml; PlGF 25 + Flt-1/Fc 400 (ng/ml) pre-incubated; anti-VEGF R1-POD
[12] = molecular target: recombinant human PlGF (R&D Systems, Catalog No. 264-PG/CF) (human) (UniProt P49763); assay: sandwich ELISA: mAb coated 3 ug/ml; PlGF 50 ng/ml; anti-PlGF-POD
[13] = molecular target: P/GF/sFlt-1 complex (gP/GF) (human) (UniProt P49763); assay: sandwich ELISA: mAb coated 3 ug/ml; PlGF 1.56 + Flt-1/Fc 400 (ng/ml) pre-incubated; anti-VEGF R1-POD
[14] = molecular target: recombinant human PlGF (R&D Systems, Catalog No. 264-PG/CF) (human) (UniProt P49763); assay: sandwich ELISA: mAb coated 3 ug/ml; PlGF 25 ng/ml; anti-PlGF-POD
[15] = molecular target: recombinant human PlGF (R&D Systems, Catalog No. 264-PG/CF) (human) (UniProt P49763); assay: sandwich ELISA: mAb coated 3 ug/ml; PlGF 0.78 ng/ml; anti-PlGF-POD
[16] = molecular target: recombinant human PlGF (R&D Systems, Catalog No. 264-PG/CF) (human) (UniProt P49763); assay: sandwich ELISA: mAb coated 3 ug/ml; PlGF 6.25 ng/ml; anti-PlGF-POD
[17] = molecular target: P/GF/sFlt-1 complex (gP/GF) (human) (UniProt P49763); assay: sandwich ELISA: mAb coated 3 ug/ml; PlGF 0.39 + Flt-1/Fc 400 (ng/ml) pre-incubated; anti-VEGF R1-POD
[18] = molecular target: recombinant human PlGF (R&D Systems, Catalog No. 264-PG/CF) (human) (UniProt P49763); assay: sandwich ELISA: mAb 1.0 ug/ml on anti-mouse IgG plate, PlGF 0.1 ug/ml, anti-PlGF-POD

Extinction at 450 nm [1]: 0.691 | Extinction at 450 nm [2]: 0.883 | Extinction at 450 nm [3]: 0.146 | Extinction at 450 nm [4]: 0.885 | Extinction at 450 nm [5]: 0.217 | Extinction at 450 nm [6]: 0.529 | Extinction at 450 nm [7]: 0.232 | Extinction at 450 nm [8]: 1.9 | Extinction at 450 nm [9]: 1.61 | Extinction at 450 nm [10]: 0.081 | Extinction at 450 nm [11]: 2.19 | Extinction at 450 nm [12]: 2.5 | Extinction at 450 nm [13]: 0.272 | Extinction at 450 nm [14]: 1.47 | Extinction at 450 nm [15]: 0.05 | Extinction at 450 nm [16]: 0.468 | Extinction at 450 nm [17]: 0.094 | Extinction at 450 nm [18]: 2.5
Substance: antibody MAB264 from R&D Systems
